From patent US20040191840A1

Tests used:
[1] = target: T1, natural human type I interferon receptor (IFN-R) on the surface of human cells (human) (UniProt P17181); test: inhibition of binding of 125I-IFN alpha 2 (100 pM) to Ly28 cells, 4 C; competitor: labelled IFN alpha 2
T1 sequence: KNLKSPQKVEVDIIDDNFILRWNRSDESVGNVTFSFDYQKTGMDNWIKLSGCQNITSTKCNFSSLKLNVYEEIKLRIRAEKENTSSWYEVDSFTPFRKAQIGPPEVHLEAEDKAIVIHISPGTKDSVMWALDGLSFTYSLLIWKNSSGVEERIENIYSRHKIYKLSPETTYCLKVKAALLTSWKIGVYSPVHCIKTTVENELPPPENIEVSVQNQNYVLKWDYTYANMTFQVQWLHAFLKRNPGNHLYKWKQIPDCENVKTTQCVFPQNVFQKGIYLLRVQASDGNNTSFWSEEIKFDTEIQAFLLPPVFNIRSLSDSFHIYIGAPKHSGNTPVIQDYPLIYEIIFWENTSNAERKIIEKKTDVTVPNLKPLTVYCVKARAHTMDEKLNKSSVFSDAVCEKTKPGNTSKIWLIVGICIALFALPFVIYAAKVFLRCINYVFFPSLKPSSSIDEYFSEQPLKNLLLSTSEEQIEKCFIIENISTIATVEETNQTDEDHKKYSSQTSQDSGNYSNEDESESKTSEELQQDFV

[2] = target: T1, natural human type I interferon receptor (IFN-R) on the surface of human cells (human); test: inhibition of binding of 125I-IFN alpha 2 (100 pM) to HL60 cells, 4 C; competitor: labelled IFN alpha 2
[3] = target: T1, natural human type I interferon receptor (IFN-R) on the surface of human cells (human); test: inhibition of binding of 125I-IFN alpha 2 (100 pM) to Daudi cells, 4 C; competitor: labelled IFN alpha 2
[4] = target: T1, natural human type I interferon receptor (IFN-R) on the surface of human cells (human); test: inhibition of binding of 125I-IFN alpha 2 (100 pM) to K562 cells, 4 C; competitor: labelled IFN alpha 2

B1: monoclonal antibody 64G12 (antibody, from another filing, IgG1, V domains shown)
VH: QVTLKESGPGILKPSQTLSLTCSFSGFSLSTSGMGIGWIRQPSGKGLEWLAHIWWDDDKYYNPSLKSQLTISRDTSTNQVFLNITSVDTVDTATYYCGRNYYPYDAWFDYWGQGTLVTVS
VL: EIVLTQSPTTMAASPGEKITITCSASSSINSNHLHWYQQKPGFSPKVLIYRTSILASGVPTRFSGSGSGTSYSLTIGTMEAEDVATYYCQQGSNIPFTFGSGTELEIKR
In the case of B1, the IC50 [1] is reported as 60 mg/L, the IC50 [2] is reported as 11 mg/L and the IC50 [3] is reported as 0.4 mg/L. It also gave an IC50 [4] of 0.4 mg/L.
